# Test results taken from article PMC3393700, “Localization and Sub-Cellular Shuttling of HTLV-1 Tax with the miRNA Machinery” (PLoS ONE, 2012).
# Tests used:
# [1] = target: Tax deletion mutant TD1 (Δ1–37) (HTLV-1, UniProt P03409 38-353); experiment: cell-based or functional assay
# [2] = target: Tax deletion mutant TD55 (Δ55–92) (HTLV-1, UniProt P03409 1-353, Δ55–92); experiment: cell-based or functional assay
binder,measurement,setting,value
"Drosha (endogenous, 293T cell lysate) (enzyme, human (endogenous in 293T), UniProt Q9NRR4 1-1374, looked up) MMQGNTCHRMSFHPGRGCPRGRGGHGARPSAPSFRPQNLRLLHPQQPPVQYQYEPPSAPSTTFSNSPAPNFLPPRPDFVPFPPPMPPSAQGPLPPCPIRPPFPNHQMRHPFPVPPCFPPMPPPMPCPNNPPVPGAPPGQGTFPFMMPPPSMPHPPPPPVMPQQVNYQYPPGYSHHNFPPPSFNSFQNNPSSFLPSANNSSSPHFRHLPPYPLPKAPSERRSPERLKHYDDHRHRDHSHGRGERHRSLDRRERGRSPDRRRQDSRYRSDYDRGRTPSRHRSYERSRERERERHRHRDNRRSPSLERSYKKEYKRSGRSYGLSVVPEPAGCTPELPGEIIKNTDSWAPPLEIVNHRSPSREKKRARWEEEKDRWSDNQSSGKDKNYTSIKEKEPEETMPDKNEEEEEELLKPVWIRCTHSENYYSSDPMDQVGDSTVVGTSRLRDLYDKFEEELGSRQEKAKAARPPWEPPKTKLDEDLESSSESECESDEDSTCSSSSDSEVFDVIAEIKRKKAHPDRLHDELWYNDPGQMNDGPLCKCSAKARRTGIRHSIYPGEEAIKPCRPMTNNAGRLFHYRITVSPPTNFLTDRPTVIEYDDHEYIFEGFSMFAHAPLTNIPLCKVIRFNIDYTIHFIEEMMPENFCVKGLELFSLFLFRDILELYDWNLKGPLFEDSPPCCPRFHFMPRFVRFLPDGGKEVLSMHQILLYLLRCSKALVPEEEIANMLQWEELEWQKYAEECKGMIVTNPGTKPSSVRIDQLDREQFNPDVITFPIIVHFGIRPAQLSYAGDPQYQKLWKSYVKLRHLLANSPKVKQTDKQKLAQREEALQKIRQKNTMRREVTVELSSQGFWKTGIRSDVCQHAMMLPVLTHHIRYHQCLMHLDKLIGYTFQDRCLLQLAMTHPSHHLNFGMNPDHARNSLSNCGIRQPKYGDRKVHHMHMRKKGINTLINIMSRLGQDDPTPSRINHNERLEFLGDAVVEFLTSVHLYYLFPSLEEGGLATYRTAIVQNQHLAMLAKKLELDRFMLYAHGPDLCRESDLRHAMANCFEALIGAVYLEGSLEEAKQLFGRLLFNDPDLREVWLNYPLHPLQLQEPNTDRQLIETSPVLQKLTEFEEAIGVIFTHVRLLARAFTLRTVGFNHLTLGHNQRMEFLGDSIMQLVATEYLFIHFPDHHEGHLTLLRSSLVNNRTQAKVAEELGMQEYAITNDKTKRPVALRTKTLADLLESFIAALYIDKDLEYVHTFMNVCFFPRLKEFILNQDWNDPKSQLQQCCLTLRTEGKEPDIPLYKTLQTVGPSHARTYTVAVYFKGERIGCGKGPSIQQAEMGAAMDALEKYNFPQMAHQKRFIERKYRQELKEMRWEREHQEREPDETEDIKK","miR326 expression (quantiMiR PCR, normalized to U6, relative to mock) in 293T cells transfected with the Tax mutant",[1],1.5 fold
same,"miR326 expression (quantiMiR PCR, normalized to U6, relative to mock) in 293T cells transfected with the Tax mutant",[2],4 fold
